Laboratory results published in the supplement of paper PMC10567573.
± gives the standard deviation.

Assay: protein stability index of a GFP-peptide fusion (GPS, HEK-293T) (PSI 1-6); higher = more stable
Details: c terminus: a fixed tail appended
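Note: 24-mer peptide tiles fused after GFP, lentivirally expressed, FACS-sorted into six equal bins by GFP/DsRed ratio, decoded by Illumina sequencing, PSI is the read-weighted mean bin number.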

Row | Sequence | protein stability index (treatment: DMSO) | protein stability index (treatment: MLN4924 1 uM, 8 h)
1 | PVKTLPFSPSQFLNFWNKQDTLEL [MYBL2] | 2.36 ± 0.37 | 2.43 ± 0.31
2 | ENLAHHLEIDSGVITLDPQTASRS [TRIM15] | 4.96 ± 0.11 | 4.97 ± 0.27
3 | LGNLVEGMDFHRFYFENALSKSNK [CAMK2D] | 2.89 ± 0.2 | 3.23 ± 0.066
4 | SLGALDLLGPATGCLLDDGLEGLF [SERTAD1] | 2.6 ± 0.24 | 2.57 ± 0.32
5 | ATLKGPDSHYGTKGLKKVVHETPA [BTBD1] | 4.21 ± 0.34 | 4.543 ± 0.04
6 | PHGQYGGHHQGMPGYLPGAMPPYG [ZNF207] | 2.93 ± 0.33 | 3.09 ± 0.41
7 | LRTIPSPYPASKADIPSVAFSSRL [DCAF4] | 2.79 ± 0.34 | 2.94 ± 0.35
8 | TTPPGHGTLDNSKSMKPYNYCSAY [NEUROD6] | 3.27 ± 0.18 | 3.25 ± 0.17
9 | PNKGLLSDSMTDVPVDTGVAARTP [TPD52L2] | 4.9 ± 0.17 | 4.93 ± 0.16
10 | IVVSLQSKLASMSNDFKSVLEVRT [STX5] | 2.7 ± 0.65 | 2.64 ± 0.72
11 | DKKVRTIIIRSEVPGIFCAGADLK [AUH] | 2.12 ± 0.27 | 2.11 ± 0.38
12 | ARVNENLARKIASRNEFDRTIAET [SSNA1] | 3.95 ± 0.15 | 4.06 ± 0.2
13 | ALLALDENFDHNTLALILQIPTQN [PPFIA4] | 2.21 ± 0.47 | 2.17 ± 0.29
14 | EISAYRKLLQGEEERLKLSPSPSS [LMNB1] | 3.78 ± 0.37 | 4.16 ± 0.61
15 | RMLTDKEREMAEIRDQMQQQLNDY [LMNB1] | 4.93 ± 0.3 | 5.08 ± 0.19
16 | FLDILRRADKNDDGKLSFEEFKAY [NECAB1] | 2.83 ± 0.23 | 2.93 ± 0.34
17 | ILLLDGAAWLTLWVFGTSFLPFLL [FADS1] | 2.91 ± 0.062 | 3.17 ± 0.46
18 | PGGGGSPGACPALGTKSCSSSCAV [RTN3] | 3.73 ± 0.42 | 4.07 ± 0.22
19 | FSPAKPKPSKELKPLLGSAVLGLL [MYORG] | 2.15 ± 0.53 | 2.21 ± 0.17
20 | NLDANLAFASFTSGVVRIWDLRDQ [TLE6] | 2.3 ± 0.28 | 2.36 ± 0.33
21 | EECTDLQKEGEFSTCFTELQRDFL [OAS1] | 4.5 ± 0.32 | 4.52 ± 0.47
22 | APGTGPAQTELLCCLVKMESLEPD [FANCE] | 3.28 ± 0.23 | 3.39 ± 0.12

Row | Sequence | protein stability index (treatment: DMSO) | protein stability index (treatment: MLN4924 1 uM, 8 h)
23 | YDVEMTDELVGLPFSSHTYSQASE [FBXO34] | 4.52 ± 0.32 | 4.52 ± 0.23
24 | QAQMIHPKPADFRNPGPGRHRLIT [INTS4] | 3.94 ± 0.26 | 3.92 ± 0.24
25 | DLRHLRAVPTDEARAFAEKNNLSF [RAB11B] | 3.63 ± 0.15 | 3.54 ± 0.23
26 | PCIPPGFRNLVADRVLNYTSWSQH [SPAG8] | 2.14 ± 0.15 | 2.37 ± 0.27
27 | LWEALCSQGAISEGAQRDRFPGRK [C22orf31] | 3.11 ± 0.12 | 3.3 ± 0.32
28 | RKEMATILSKMPKPKPPPNSEGEQ [CCNC] | 5.06 ± 0.34 | 5.06 ± 0.19
29 | GIAILVGSNDRVQGVISQLEDTCK [TRIM55] | 2.3 ± 0.15 | 2.43 ± 0.37
30 | MKAHSFVRENVPRVLNSAKEKSST [SOAT1] | 4.58 ± 0.12 | 4.57 ± 0.13
31 | KRITAHEALKHPWVCQRSTVASMM [CAMK2B] | 2.5 ± 0.39 | 2.51 ± 0.26
32 | FVLLCFAIGALLVCYHYYADWFMS [TMEM40] | 2.16 ± 0.31 | 2.19 ± 0.39
33 | LQSAAGKDAAKQIAWIKDKLLHIY [PDS5B] | 2.59 ± 0.39 | 3.09 ± 0.61
34 | KVLGELNILPNTQKVTCFYQPAPY [TENT5D] | 2.5 ± 0.23 | 2.16 ± 0.3
35 | YHAVVEPMLWNPSGTPKRYSLELG [C22orf31] | 2.77 ± 0.54 | 2.81 ± 0.17
36 | RKDVGCNRFEVTLEKSNKNFSKKI [VPS39] | 3.62 ± 0.22 | 3.98 ± 0.2
37 | YSLQMKRVIACQKTAHDSNVLHVA [WDR41] | 2.23 ± 0.14 | 2.38 ± 0.32
38 | YSFRKLPDTQLLKFQLNKYTGEIK [PCDHGA10] | 2.39 ± 0.37 | 2.54 ± 0.3
39 | PAPALAPDQLPQNNTLVALPIVAI [FBXO28] | 2.91 ± 0.23 | 2.68 ± 0.33
40 | YPCIPNHELVWAKMKGFGFWPAKV [ZMYND11] | 3.09 ± 1.4 | 2.19 ± 0.3
41 | CQSVLEDFNLCLFYLPSSPNLSLA [SMG5] | 2.5 ± 0.65 | 2.72 ± 0.63
42 | NNQDFIPFTKKRVGVDRAFPLKPM [ZC2HC1C] | 2.85 ± 0.39 | 3.26 ± 0.45
43 | LSQAGQKTSAALSTVGSAISRKLG [TPD52L2] | 3.67 ± 0.22 | 3.92 ± 0.27
44 | AFLGPDEAFALPDSLLVVLDMDEG [SPSB4] | 2.45 ± 0.39 | 2.6 ± 0.38
